Laboratory results taken from patent US20220409739A1 (OXFORD UNIVERSITY INNOVATION, published 2022).

B1: GAPDH-cMyc protein (enzyme)
chain: not shown
notes: also called GAPDH-cMye; not shown: cMyc tag

Key:
Assay in all cases: co-immunoprecipitation on cMyc beads from HEK293T cell lysate, western blot
Argonuate 2 (Ago2) = Argonuate 2 (Ago2) (UniProt Q9UKV8 1-859)
[1] = molecular target: Insulin triphosphate receptor 3 (IPR3) (UniProt Q14573 1-2671)
GAPDH-cMyc protein = molecular target: B1
Sequence of GAPDH-cMyc protein (P04406 whole entry): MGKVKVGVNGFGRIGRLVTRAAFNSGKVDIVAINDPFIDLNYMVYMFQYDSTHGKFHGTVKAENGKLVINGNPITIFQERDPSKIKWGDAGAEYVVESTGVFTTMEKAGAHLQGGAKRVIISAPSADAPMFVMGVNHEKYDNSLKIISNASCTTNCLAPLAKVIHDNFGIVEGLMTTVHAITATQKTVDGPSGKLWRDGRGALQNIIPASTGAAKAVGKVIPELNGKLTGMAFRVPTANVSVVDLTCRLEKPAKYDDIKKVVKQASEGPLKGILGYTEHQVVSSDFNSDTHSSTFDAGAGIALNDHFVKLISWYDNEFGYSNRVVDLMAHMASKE

Sequence of Argonuate 2 (Ago2) (Q9UKV8 whole entry): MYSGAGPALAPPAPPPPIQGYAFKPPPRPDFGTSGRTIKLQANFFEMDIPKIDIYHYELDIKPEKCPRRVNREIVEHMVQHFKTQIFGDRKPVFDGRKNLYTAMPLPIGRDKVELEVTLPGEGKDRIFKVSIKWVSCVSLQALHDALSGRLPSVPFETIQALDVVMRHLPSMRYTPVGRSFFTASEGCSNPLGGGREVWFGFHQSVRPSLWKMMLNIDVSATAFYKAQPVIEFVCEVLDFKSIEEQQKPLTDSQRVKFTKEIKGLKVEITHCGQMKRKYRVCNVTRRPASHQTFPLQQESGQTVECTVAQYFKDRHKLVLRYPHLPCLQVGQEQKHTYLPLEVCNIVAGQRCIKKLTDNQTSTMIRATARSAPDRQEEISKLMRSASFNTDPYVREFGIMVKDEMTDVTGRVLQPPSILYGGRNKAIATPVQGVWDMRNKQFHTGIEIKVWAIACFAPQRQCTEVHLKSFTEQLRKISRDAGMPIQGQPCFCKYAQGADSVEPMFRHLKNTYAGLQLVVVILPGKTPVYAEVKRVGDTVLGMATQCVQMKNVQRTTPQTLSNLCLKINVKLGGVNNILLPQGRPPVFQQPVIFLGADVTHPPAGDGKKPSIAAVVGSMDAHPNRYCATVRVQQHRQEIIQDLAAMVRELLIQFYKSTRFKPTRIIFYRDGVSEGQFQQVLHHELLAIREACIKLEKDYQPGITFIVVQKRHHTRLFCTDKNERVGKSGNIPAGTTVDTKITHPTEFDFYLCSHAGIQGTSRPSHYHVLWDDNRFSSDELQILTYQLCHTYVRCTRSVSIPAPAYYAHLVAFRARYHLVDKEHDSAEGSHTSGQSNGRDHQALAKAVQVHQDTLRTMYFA
Sequence of Insulin triphosphate receptor 3 (IPR3) (Q14573 whole entry): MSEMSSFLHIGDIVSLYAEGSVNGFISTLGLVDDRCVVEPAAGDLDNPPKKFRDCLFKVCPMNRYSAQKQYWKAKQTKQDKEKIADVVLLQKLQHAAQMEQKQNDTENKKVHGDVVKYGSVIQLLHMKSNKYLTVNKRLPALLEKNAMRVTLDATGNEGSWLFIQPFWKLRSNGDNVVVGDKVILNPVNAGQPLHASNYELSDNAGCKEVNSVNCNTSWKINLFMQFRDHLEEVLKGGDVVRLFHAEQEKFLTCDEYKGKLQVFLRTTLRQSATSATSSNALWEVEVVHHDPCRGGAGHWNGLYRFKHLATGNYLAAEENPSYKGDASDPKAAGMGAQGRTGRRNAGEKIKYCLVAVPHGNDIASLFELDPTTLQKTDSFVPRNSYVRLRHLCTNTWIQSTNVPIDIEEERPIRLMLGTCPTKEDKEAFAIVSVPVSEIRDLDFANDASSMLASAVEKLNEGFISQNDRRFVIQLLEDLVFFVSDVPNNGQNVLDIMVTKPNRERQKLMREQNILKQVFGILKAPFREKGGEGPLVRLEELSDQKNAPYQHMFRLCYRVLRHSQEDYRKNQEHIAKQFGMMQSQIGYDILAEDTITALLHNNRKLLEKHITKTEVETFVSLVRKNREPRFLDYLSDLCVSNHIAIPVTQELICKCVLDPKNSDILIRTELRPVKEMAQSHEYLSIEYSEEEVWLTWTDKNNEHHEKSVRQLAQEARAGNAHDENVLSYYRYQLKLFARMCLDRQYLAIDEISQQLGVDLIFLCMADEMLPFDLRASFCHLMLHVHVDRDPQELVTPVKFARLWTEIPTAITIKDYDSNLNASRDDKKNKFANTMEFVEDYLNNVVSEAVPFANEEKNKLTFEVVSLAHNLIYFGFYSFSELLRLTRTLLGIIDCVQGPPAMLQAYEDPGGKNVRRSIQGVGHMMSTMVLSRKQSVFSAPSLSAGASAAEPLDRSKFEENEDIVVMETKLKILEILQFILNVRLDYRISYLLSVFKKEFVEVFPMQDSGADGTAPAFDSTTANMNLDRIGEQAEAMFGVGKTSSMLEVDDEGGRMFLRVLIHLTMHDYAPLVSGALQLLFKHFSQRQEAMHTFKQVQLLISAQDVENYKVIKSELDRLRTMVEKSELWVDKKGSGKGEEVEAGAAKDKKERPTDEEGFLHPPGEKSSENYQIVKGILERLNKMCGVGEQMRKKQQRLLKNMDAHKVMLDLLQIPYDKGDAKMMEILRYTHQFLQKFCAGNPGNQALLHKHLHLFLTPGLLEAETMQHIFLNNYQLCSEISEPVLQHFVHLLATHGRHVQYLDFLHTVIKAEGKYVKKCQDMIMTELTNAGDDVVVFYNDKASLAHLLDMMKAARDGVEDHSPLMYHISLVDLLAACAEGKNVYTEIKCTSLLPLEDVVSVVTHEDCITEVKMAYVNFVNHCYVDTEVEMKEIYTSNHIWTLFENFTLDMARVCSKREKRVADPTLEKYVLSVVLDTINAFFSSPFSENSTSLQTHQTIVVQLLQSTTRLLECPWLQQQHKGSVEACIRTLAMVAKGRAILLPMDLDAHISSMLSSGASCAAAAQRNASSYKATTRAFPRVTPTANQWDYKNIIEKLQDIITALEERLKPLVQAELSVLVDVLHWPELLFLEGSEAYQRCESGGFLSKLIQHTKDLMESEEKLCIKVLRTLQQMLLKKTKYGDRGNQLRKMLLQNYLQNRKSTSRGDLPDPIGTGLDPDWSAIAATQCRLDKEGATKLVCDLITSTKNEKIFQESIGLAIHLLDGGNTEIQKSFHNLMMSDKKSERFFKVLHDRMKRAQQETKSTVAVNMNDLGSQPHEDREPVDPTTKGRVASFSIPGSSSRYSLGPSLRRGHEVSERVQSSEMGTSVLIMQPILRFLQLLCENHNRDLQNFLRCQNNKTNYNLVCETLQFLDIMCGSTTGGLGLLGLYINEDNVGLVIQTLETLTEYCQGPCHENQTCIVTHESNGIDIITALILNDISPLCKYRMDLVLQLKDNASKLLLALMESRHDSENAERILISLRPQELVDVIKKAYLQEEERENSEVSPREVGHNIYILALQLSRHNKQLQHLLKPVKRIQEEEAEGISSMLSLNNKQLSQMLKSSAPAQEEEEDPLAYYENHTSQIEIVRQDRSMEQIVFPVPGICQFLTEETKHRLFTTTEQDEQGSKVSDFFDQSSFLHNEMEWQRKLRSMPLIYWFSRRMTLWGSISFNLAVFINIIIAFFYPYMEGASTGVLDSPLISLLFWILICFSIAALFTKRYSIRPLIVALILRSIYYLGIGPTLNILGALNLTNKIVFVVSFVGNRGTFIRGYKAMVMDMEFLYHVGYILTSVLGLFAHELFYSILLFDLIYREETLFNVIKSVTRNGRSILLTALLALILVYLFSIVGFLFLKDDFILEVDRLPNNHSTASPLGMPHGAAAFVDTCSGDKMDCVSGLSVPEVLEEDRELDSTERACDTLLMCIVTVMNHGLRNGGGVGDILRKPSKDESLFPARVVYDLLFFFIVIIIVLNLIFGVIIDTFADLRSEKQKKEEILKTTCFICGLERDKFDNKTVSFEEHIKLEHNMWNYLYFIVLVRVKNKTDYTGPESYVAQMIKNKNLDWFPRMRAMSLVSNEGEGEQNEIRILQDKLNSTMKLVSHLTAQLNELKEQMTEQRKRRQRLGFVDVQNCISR

B1: no binding (Argonuate 2 (Ago2)); no binding [1].

B2: mitochondrial import receptor subunit TOM20 (other, UniProt Q15388 1-145, looked up)
chain: MVGRNSAIAAGVCGALFIGYCIYFDRKRRSDPNFKNRLRERRKKQKLAKERAGLSKLPDLKDAEAVQKFFLEEIQLGEELLAQGEYEKGVDHLTNAIAVCGQPQQLLQVLQQTLPPPVFQMLLTKLPTISQRIVSAQSLAEDDVE
B2: no binding (GAPDH-cMyc protein).
